# Source: patent publication EP0946727B1
# Assays:
# human CD11a (human) [1] = biological target: human CD11a (human) (UniProt P20701); test: blocking of Jurkat cell adhesion to human keratinocytes (ICAM-1)
# human CD11a (human) [2] = biological target: human CD11a (human) (UniProt P20701); test: FACScan on Jurkat cells
# human CD11a (human) [3] = biological target: human CD11a (human) (UniProt P20701); test: saturation binding, human lymphocytes, donor 1, Kd(app)
# human CD11a (human) [4] = biological target: human CD11a (human) (UniProt P20701); test: cell-based or functional assay
# human CD11a (human) [5] = biological target: human CD11a (human) (UniProt P20701); test: cell binding, human CD11a
# human CD11a (human) [6] = biological target: human CD11a (human) (UniProt P20701); test: binding to Jurkat cells (FACScan)
# human CD11a (human) [7] = biological target: human CD11a (human) (UniProt P20701); test: saturation binding of 125I-antibody to human peripheral blood mononuclear cells, Kd(app)
# human CD11a (human) [8] = biological target: human CD11a (human) (UniProt P20701); test: saturation binding, human lymphocytes, donor 2, Kd(app)
# rhesus CD18 (rhesus) [9] = biological target: rhesus CD18 (rhesus) (UniProt H9Z8N5); test: blocking of rhesus lymphocyte adhesion to recombinant human ICAM-1 on plates
# rhesus CD18 (rhesus) [10] = biological target: rhesus CD18 (rhesus) (UniProt H9Z8N5); test: blocking of rhesus lymphocyte adhesion to human keratinocytes
# murine MHM24 (antibody), sequence (main, form in doubt): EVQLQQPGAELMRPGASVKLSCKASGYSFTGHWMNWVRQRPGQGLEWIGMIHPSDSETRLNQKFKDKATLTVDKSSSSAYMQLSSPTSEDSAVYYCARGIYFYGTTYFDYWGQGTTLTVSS
# murine MHM24 (antibody), sequence (main, form in doubt): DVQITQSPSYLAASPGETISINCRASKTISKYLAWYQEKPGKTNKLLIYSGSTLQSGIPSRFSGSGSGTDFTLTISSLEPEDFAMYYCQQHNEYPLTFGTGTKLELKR
# human CD11a (human), sequence (P20701 26-1170): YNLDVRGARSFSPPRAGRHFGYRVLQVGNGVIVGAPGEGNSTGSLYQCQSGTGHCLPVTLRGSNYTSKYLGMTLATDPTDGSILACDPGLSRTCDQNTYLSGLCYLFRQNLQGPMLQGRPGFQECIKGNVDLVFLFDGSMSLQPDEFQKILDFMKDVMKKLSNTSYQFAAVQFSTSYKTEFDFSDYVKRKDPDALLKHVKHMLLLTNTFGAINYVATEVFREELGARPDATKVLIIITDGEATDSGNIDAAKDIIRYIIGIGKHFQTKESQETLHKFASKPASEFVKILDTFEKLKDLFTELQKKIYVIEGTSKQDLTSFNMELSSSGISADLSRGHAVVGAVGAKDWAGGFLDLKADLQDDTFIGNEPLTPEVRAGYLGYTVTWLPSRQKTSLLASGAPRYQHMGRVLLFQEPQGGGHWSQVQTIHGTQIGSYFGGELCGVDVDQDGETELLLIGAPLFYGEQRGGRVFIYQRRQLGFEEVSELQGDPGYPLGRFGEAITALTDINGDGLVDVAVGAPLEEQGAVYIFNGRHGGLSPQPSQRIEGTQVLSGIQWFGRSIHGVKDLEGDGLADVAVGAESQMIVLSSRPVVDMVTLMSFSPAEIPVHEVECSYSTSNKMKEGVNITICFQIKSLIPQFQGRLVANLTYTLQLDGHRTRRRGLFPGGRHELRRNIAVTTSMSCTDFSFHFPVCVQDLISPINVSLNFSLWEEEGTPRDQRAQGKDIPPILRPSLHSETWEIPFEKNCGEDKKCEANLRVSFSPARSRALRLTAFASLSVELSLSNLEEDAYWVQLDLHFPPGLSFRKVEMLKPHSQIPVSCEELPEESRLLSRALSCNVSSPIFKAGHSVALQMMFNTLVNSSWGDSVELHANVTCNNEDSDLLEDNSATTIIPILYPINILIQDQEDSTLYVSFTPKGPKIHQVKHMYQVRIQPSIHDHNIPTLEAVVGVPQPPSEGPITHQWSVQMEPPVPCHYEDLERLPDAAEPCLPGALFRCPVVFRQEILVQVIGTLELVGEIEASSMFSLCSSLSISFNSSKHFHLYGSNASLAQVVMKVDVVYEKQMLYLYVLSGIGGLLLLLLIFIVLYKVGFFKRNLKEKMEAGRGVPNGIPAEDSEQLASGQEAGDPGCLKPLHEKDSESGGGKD
# humanized MHM24 IgG1 (antibody), sequence (main, form in doubt): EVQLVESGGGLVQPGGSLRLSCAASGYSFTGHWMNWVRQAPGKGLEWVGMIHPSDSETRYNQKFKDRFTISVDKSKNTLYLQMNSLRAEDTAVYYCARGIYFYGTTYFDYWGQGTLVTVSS
# humanized MHM24 IgG1 (antibody), sequence (main, form in doubt): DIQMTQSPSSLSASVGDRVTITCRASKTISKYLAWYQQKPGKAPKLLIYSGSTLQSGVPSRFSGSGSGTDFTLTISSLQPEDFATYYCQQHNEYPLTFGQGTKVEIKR
IC50 (human CD11a (human) [1]),EC50 (human CD11a (human) [2]),EC50 F(ab)/EC50 F(ab)-2 (human CD11a (human) [2]),Kd (human CD11a (human) [3]),"IC50, human mixed lymphocyte response (MLR) (human CD11a (human) [4])",Var.EC50/HuIgG1 EC50 (human CD11a (human) [5]),EC50 (human CD11a (human) [6]),Kd (human CD11a (human) [7]),Kd (human CD11a (human) [8]),IC50 (rhesus CD18 (rhesus) [9]),IC50 (rhesus CD18 (rhesus) [10]),Substance
0.1 nM,5.2 ng/mL,0.006,–,–,–,–,–,–,–,–,chimeric MHM24 IgG1 (antibody)
0.13 nM,–,0.004,0.11 nM,0.38 nM,1,0.042 nM,0.15 nM,0.18 nM,–,–,humanized MHM24 IgG1 (antibody)
0.09 nM,–,–,0.16 nM,0.19 nM,–,–,0.15 nM,0.13 nM,–,–,murine MHM24 (antibody)
–,–,–,–,–,–,–,–,–,1.2 nM,1.6 nM,murine anti-human CD18 antibody MHM23
